# Measurements from patent US20210179686A1, “CELL SORTING SYSTEMS AND METHODS OF USE” (MEMORIAL SLOAN-KETTERING CANCER CENTER, priority 2018, published 2021).
# Test system: soluble CD28-Fc
# Experiment: binding of soluble CD28-Fc by CD80 functionalized leucine zipper T cells
# Details: FIG. 21B
# From the text: CD80 (B7-1) molecule functionalized to present blocked capture leucine zipper, permitting magnetic sorting with FLAG-RR12EE345L leucine zipper. T cells were transduced with vectors encoding (a) FLAG-RR12EE345L iCaspase9 CD19-myc-CAR and (b) RR12EE345L linker EE12RR345L CD80 CD20-streptag-CAR. Next, cells were magnetically sorted with anti-FLAG magnetic beads.
molecule,measurement,value
"RR12EE345L linker EE12RR345L CD80: CD80 (B7-1) functionalized to present blocked capture leucine zipper, SEQ ID NO: 142 (protein) METDTLLLWVLLLWVPGSTGLEIRAAFLRQRNTALRTEVAELEQEVQRLENEVSQYETRYGPLGGGKGGGGSGGGGSGGGGSGGGSLEIEAAFLERENTALETRVAELRQRVQRLRNRVSQYRTRYGPLGGGKEFTGSTSGSGKPGSGEGSTKGVDEQLSKSVKDKVLLPCRYNSPHEDESEDRIYWQKHDKVVLSVIAGKLKVWPEYKNRTLYDNTTYSLIILGLVLSDRGTYSCVVQKKERGTYEVKHLALVKLSIKADFSTPNITESGNPSADTKRITCFASGGFPKPRFSWLENGRELPGINTTISQDPESELYTISSQLDFNTTRNHTIKCLIKYGDAHVSEDFTWEKPPEDPPDSKNTLVLFGAGFGAVITVVVIVVIIKCFCKHRSCFRRNEASRETNNSLTFGPEEALAEQTVFL",binding to soluble CD28-Fc,bound to soluble CD28-Fc
